The record followed here is patent US20230192896A1 (BIOVERATIV THERAPEUTICS, published 2023).

The target of assay [1] is T1, free FIXa (activated Factor IX) (human, UniProt P00740 47-191; P00740 227-461).
T1 construct: BLI antigen bought from Haematologic Technologies (HCIXA-0050); also called factor IXa
As to the kind of experiment: yeast display selection and BLI as in Examples 1 and 5.

The target in assay [2] is T1, free FIXa (activated Factor IX). Briefly: BLI, IgG on AHQ sensor, 100 nM antigen (the weaker partner). Background: BLI is a label-free optical method that tracks binding on a fibre tip over time.
Procedure: BLI was performed on the OctetRed94 or the Octet HTX system, according to standard procedure. Briefly, biosensors were equilibrated in Tris-buffered saline supplemented with 5 mM CaCl₂ and 0.1% bovine serum albumin (TBSFCa). Plates were then transferred to the instrument. A soak step was performed on the instrument, with incubation of the biosensors for 60 seconds in TBSFCa. […] Following this, the biosensors were incubated in TBSFCa for 60 seconds to establish baseline. Next, the biosensors were transferred to wells containing the desired antigen (100 nM in TBSFCa) and incubated for 90 seconds. Finally, the sensors were transferred to TBSFCa alone for 90 seconds incubation.
Assay [3] has the same target. As to the kind of experiment: cell-based or functional assay.

B1: BIIB-9-3675 (antibody, V domains shown)
VH: QLQLQESGPGLVKPSETLSLTCTVSGGSISSTSYYWVWIRQPPGKGLEWIGSITASGSTYYNPSLKSRVTISVDTSKNQFSLKLSSVTAADTAVYYCARDKYQDYSFDIWGQGTMVTVSS
VL: DIQMTQSPSSVSASVGDRVTITCRASQGIDSWLAWYQQKPGKAPKLLIYAASSLQSGVPSRFSGSGSGTDFTLTISSLQPEDFATYYCQQANFLPFTFGGGTKVEIK
notes: daughter of BIIB-9-578
As for B1, the binding result in assay [1] is reported as “binds”.

B2: BIIB-9-3681 (antibody, V domains shown)
VH: QLQLQESGPGLVKPSETLSLTCTVSGGSISSGSYYWNWIRQPPGKGLEWIGSIQPSGSTYYNPSLKSRVTISVDTSKNQFSLKLSSVTAADTAVYYCARDKYQDYSFDIWGQGTMVTVSS
VL: DIQMTQSPSSVSASVGDRVTITCRASQGIDSWLAWYQQKPGKAPKLLIYAASSLQSGVPSRFSGSGSGTDFTLTISSLQPEDFATYYCQQANFLPFTFGGGTKVEIK
notes: daughter of BIIB-9-578
Consider B2, for which the binding result in assay [1] was “binds”.

B3: BIIB-9-3704 (antibody, V domains shown)
VH: QVQLQESGPGLVKPSQTLSLTCTVSGGSISSGAYAWSWIRQHPGKGLEWIGYIYYQGKTYYNPSLKSRVTISVDTSKNQFSLKLSSVTAADTAVYYCARDKYQDYSFDIWGQGTMVTVSS
VL: DIQMTQSPSSVSASVGDRVTITCRASQGIDSWLAWYQQKPGKAPKLLIYAASSLQSGVPSRFSGSGSGTDFTLTISSLQPEDFATYYCQQANFLPFTFGGGTKVEIK
notes: daughter of BIIB-9-578
Regarding B3, the binding result in assay [1] is recorded as “binds”.

B4: BIIB-9-3698 (antibody, V domains shown)
VH: QLQLQESGPGLVKPSETLSLTCTVSGGSIASSSYYWSWIRQPPGKGLEWIGSIRGSGSTYYNPSLKSRVTISVDTSKNQFSLKLSSVTAADTAVYYCARDKYQDYSFDIWGQGTMVTVSS
VL: DIQMTQSPSSVSASVGDRVTITCRASQGIDSWLAWYQQKPGKAPKLLIYAASSLQSGVPSRFSGSGSGTDFTLTISSLQPEDFATYYCQQANFLPFTFGGGTKVEIK
notes: daughter of BIIB-9-578
As to B4, in assay [1], the binding result is “binds”.

B5: BIIB-9-3684 (antibody, V domains shown)
VH: QLQLQESGPGLVKPSETLSLTCTVSGGSISSVSYYWNWIRQPPGKGLEWIGSITYSGSTQYNPSLKSRVTISVDTSKNQFSLKLSSVTAADTAVYYCARDKYQDYSFDIWGQGTMVTVSS
VL: DIQMTQSPSSVSASVGDRVTITCRASQGIDSWLAWYQQKPGKAPKLLIYAASSLQSGVPSRFSGSGSGTDFTLTISSLQPEDFATYYCQQANFLPFTFGGGTKVEIK
notes: daughter of BIIB-9-578
On to B5, for which the binding result in assay [1] is given as “binds”.

B6: BIIB-9-3780 (antibody, V domains shown)
VH: QLQLQESGPGLVKPSETLSLTCTVSGGSISSSSYYWGWIRQPPGKGLEWIGSISYSGSTYYNPSLKSRVTISVDTSKNQFSLKLSSVTAADTAVYYCARDKYQDYSVDIWGQGTMVTVSS
VL: DIQMTQSPSSVSASVGDRVTITCRASQGIDSWLAWYQQKPGKAPKLLIYAASSLQSGVPSRFSGSGSGTDFTLTISSLQPEDFATYYCQQANFLPFTFGGGTKVEIK
notes: daughter of BIIB-9-578
Take B6: the binding result in assay [1] is reported as “binds”.

B7: BIIB-9-612 (antibody, V domains shown)
VH: QVQLVQSGAEVKKPGASVKVSCKASGYTFTSYYMHWVRQAPGQGLEWMGIINPSGGSTSYAQKFQGRVTMTRDTSTSTVYMELSSLRSEDTAVYYCARDAGYHWYGMDVWGQGTTVTVSS
VL: EIVLTQSPATLSLSPGERATLSCRASQSVSRYLAWYQQKPGQAPRLLIYDASNRATGIPARFSGSGSGTDFTLTISSLEPEDFAVYYCQQSSLFPLTFGGGTKVEIK
notes: IgG
As to B7, in assay [2], the binding result is listed as “binds”.

B8: BIIB-9-3745 (antibody, V domains shown)
VH: QVQLVQSGAEVKKPGASVKVSCKASGYTFTGYPMHWVRQAPGQGLEWMGSINPSRGSTSYAQKFQGRVTMTRDTSTSTVYMELSSLRSEDTAVYYCARDGPRVSDYYMDVWGKGTTVTVSS
VL: EIVLTQSPATLSLSPGERATLSCRASQSVSSYLAWYQQKPGQAPRLLIYDASNRATGIPARFSGSGSGTDFTLTISSLEPEDFAVYYCQQRDNWPFTFGGGTKVEIK
notes: daughter of BIIB-9-619
B8: the binding result in assay [1] was “binds”.

B9: BIIB-9-397 (antibody, V domains shown)
VH: QVQLQESGPGLVKPSETLSLTCAVSGYSISSGYYWAWIRQPPGKGLEWIGSIYHSGSTYYNPSLKSRVTISVDTSKNQFSLKLSSVTAADTAVYYCARDVWYVGGFDPWGQGTLVTVSS
VL: DIQMTQSPSSLSASVGDRVTITCQASQDISNYLNWYQQKPGKAPKLLIYDASNLETGVPSRFSGSGSGTDFTFTISSLQPEDIATYYCQQSDDHPPTFGGGTKVEIK
notes: IgG
B9: the binding result in assay [2] is reported as “binds”.

B10: BIIB-9-1336 (antibody, V domains shown)
VH: EVQLVESGGGLVKPGGSLRLSCAASGFTFGSYDMNWVRQAPGKGLEWVSSISSGESYIYYAESVKGRFTISRDNAKNSLYLQMNSLRAEDTAVYYCARDVGGYAGYYGMDVWGQGTTVTVSS
VL: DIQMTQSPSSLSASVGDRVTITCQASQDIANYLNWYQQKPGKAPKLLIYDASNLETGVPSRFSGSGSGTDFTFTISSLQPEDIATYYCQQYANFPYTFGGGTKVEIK
Consider B10, for which, in assay [3], the “rate of ATIII inhibition of FIXa (ATIII-FIXa complex band on gel)” value is roughly 3 fold and the “rate of substrate (ADG299) cleavage by FIXa (amidolytic activity)” value worked out at 3 fold.

B11: BIIB-9-3764 (antibody, V domains shown)
VH: EVQLVESGGGLVKPGGSLRLSCAASGFTFGSYDMNWVRQAPGKGLEWVSSISSGESYIYYAESVKGRFTISRDNAKNSLYLQMNSLRAEDTAVYYCARDVGGYAGYYGMDVWGQGTTVTVSS
VL: DIQMTQSPSSLSASVGDRVTITCGANQYISDYLNWYQQKPGKAPKLLIYDAANLHTGVPSRFSGSGSGTDFTFTISSLQPEDIATYYCQQYARFPYTFGGGTKVEIK
With B11, the binding result in assay [1] is reported as “binds”.

B12: BIIB-9-1336 one-armed (antibody, V domains shown)
VH: EVQLVESGGGLVKPGGSLRLSCAASGFTFGSYDMNWVRQAPGKGLEWVSSISSGESYIYYAESVKGRFTISRDNAKNSLYLQMNSLRAEDTAVYYCARDVGGYAGYYGMDVWGQGTTVTVSS
VL: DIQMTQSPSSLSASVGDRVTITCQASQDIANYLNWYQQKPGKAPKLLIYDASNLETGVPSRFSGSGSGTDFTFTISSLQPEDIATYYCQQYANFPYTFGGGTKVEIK
On to B12, for which, in assay [3], the “rate of substrate (ADG299) cleavage by FIXa (amidolytic activity)” value worked out at 3 fold.

B13: BIIB-9-1335 (antibody, V domains shown)
VH: EVQLVESGGGLVKPGGSLRLSCAASGFTFSSYDMHWVRQAPGKGLEWVSSISSGSSYIYYADSVKGRFTISRDNAKNSLYLQMNSLRAEDTAVYYCARDVGGYAGYYGMDVWGQGTTVTVSS
VL: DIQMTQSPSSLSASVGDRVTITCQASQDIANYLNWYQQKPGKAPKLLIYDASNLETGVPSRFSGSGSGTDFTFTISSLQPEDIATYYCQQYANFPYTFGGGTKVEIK
As for B13, the “rate of ATIII inhibition of FIXa (ATIII-FIXa complex band on gel)” value in assay [3] was roughly 3 fold.

B14: BIIB-9-3766 (antibody, V domains shown)
VH: EVQLVESGGGLVKPGGSLRLSCAASGFTFGSYDMNWVRQAPGKGLEWVSSISSGESYIYYAESVKGRFTISRDNAKNSLYLQMNSLRAEDTAVYYCARDVGGYAGYYGMDVWGQGTTVTVSS
VL: DIQMTQSPSSLSASVGDRVTITCEASEDISNYLNWYQQKPGKAPKLLIYDASNLQYGVPSRFSGSGSGTDFTFTISSLQPEDIATYYCSQYANFPYTFGGGTKVEIK
For the molecule B14, the binding result in assay [1] was “binds”.

B15: BIIB-9-3756 (antibody, V domains shown)
VH: EVQLVESGGGLVKPGGSLRLSCAASGFTFGSYDMNWVRQAPGKGLEWVSSISSGESYIYYAESVKGRFTISRDNAKNSLYLQMNSLRAEDTAVYYCVRDVGGYAGYYGMDVWGQGTTVTVSS
VL: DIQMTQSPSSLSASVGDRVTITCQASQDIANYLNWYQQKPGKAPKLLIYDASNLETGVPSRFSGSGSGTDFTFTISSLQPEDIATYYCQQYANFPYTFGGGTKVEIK
Consider B15, for which the binding result in assay [1] is on record as “binds”.

B16: BIIB-9-3754 (antibody, V domains shown)
VH: EVQLVESGGGLVKPGGSLRLSCAASGFTFGSYDMNWVRQAPGKGLEWVSSISSGESYIYYAESVKGRFTISRDNAKNSLYLQMNSLRAEDTAVYYCARDVGGYAGFYGMDVWGQGTTVTVSS
VL: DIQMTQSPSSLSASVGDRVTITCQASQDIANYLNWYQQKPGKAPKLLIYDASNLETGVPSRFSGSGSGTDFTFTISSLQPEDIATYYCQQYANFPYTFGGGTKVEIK
Turning to B16, in assay [1], the binding result is “binds”.

B17: BIIB-9-3617 (antibody, V domains shown)
VH: EVQLVESGGGLVKPGGSLRLSCAASGFTFSSYSMTWVRQAPGKGLEWVSSISSSGTYIYYADSVKGRFTISRDNAKNSLYLQMNSLRAEDTAVYYCARDVGGYAGYYGMDVWGQGTTVTVSS
VL: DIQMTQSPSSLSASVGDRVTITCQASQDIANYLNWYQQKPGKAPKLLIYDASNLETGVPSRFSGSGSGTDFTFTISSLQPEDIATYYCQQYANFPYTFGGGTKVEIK
As to B17, in assay [1], the binding result is on record as “binds”.

B18: BIIB-9-3753 (antibody, V domains shown)
VH: EVQLVESGGGLVKPGGSLRLSCAASGFTFGSYDMNWVRQAPGKGLEWVSSISDSASYIAYADSVKGRFTISRDNAKNSLYLQMNSLRAEDTAVYYCARDVSGYAGYYGMDVWGQGTTVTVSS
VL: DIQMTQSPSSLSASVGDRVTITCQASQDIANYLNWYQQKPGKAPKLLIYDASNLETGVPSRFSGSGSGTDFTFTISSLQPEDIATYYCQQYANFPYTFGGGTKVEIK
With B18, the binding result in assay [1] is listed as “binds”.

B19: BIIB-9-3621 (antibody, V domains shown)
VH: EVQLVESGGGLVKPGGSLRLSCAASGFTFGSYSMAWVRQAPGKGLEWVSGISSSSGYIYYADSVKGRFTISRDNAKNSLYLQMNSLRAEDTAVYYCARDVGGYAGYYGMDVWGQGTTVTVSS
VL: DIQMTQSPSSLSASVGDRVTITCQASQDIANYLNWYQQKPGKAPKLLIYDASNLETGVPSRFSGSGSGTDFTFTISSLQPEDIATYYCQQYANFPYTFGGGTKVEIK
For B19, the binding result in assay [1] is on record as “binds”.

B20: BIIB-9-3650 (antibody, V domains shown)
VH: EVQLVESGGGLVQPGGSLRLSCAASGFTFGSYEMNWVRQAPGKGLEWVSAISASSSTIYYADSVKGRFTISRDNAKNSLYLQMNSLRAEDTAVYYCARDVGGYAGYYGMDVWGQGTTVTVSS
VL: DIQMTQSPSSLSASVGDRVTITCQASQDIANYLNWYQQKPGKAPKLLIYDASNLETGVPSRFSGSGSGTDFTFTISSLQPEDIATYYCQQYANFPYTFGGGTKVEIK
As for B20, the binding result in assay [1] is “binds”.

B21: BIIB-9-3649 (antibody, V domains shown)
VH: EVQLVESGGGLVKPGGSLRLSCAASGFTFSSYGMAWVRQAPGKGLEWVSGISSSSSYIYYADSVKGRFTISRDNAKNSLYLQMNSLRAEDTAVYYCARDVGGYAGYYGMDVWGQGTTVTVSS
VL: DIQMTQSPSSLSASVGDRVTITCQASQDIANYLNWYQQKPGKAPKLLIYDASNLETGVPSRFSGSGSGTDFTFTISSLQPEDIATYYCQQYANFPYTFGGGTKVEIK
Take B21: in assay [1], the binding result is “binds”.

B22: BIIB-9-3618 (antibody, V domains shown)
VH: EVQLVESGGGLVKPGGSMRLSCAASGFTFSSYEMVWVRQAPGKGLEWVSYISSGSSYIYYADSVKGRFTISRDNAKNSLYLQMNSLRAEDTAVYYCARDVGGYAGYYGMDVWGQGTTVTVSS
VL: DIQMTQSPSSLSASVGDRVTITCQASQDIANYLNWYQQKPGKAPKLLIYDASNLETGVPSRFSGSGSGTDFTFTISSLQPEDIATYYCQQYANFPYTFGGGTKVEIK
Turning to B22, the binding result in assay [1] was “binds”.

B23: BIIB-9-3654 (antibody, V domains shown)
VH: EVQLVESGGGLVKPGGSLRLSCAASGFTFESYSMNWVRQAPGKGLEWVSGISSASSYIYYADSVKGRFTISRDNAKNSLYLQMNSLRAEDTAVYYCARDVGGYAGYYGMDVWGQGTTVTVSS
VL: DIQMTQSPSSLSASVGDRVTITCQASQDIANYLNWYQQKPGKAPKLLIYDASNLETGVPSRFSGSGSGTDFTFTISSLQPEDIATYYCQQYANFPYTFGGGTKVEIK
Consider B23, for which the binding result in assay [1] is on record as “binds”.

B24: BIIB-9-3647 (antibody, V domains shown)
VH: EVQLVESGGGLVKPGGSLRLSCAASGFTFSSYGMVWVRQAPGKGLEWVSSISSASSYIYYADSVKGRFTISRDNAKNSLYLQMNSLRAEDTAVYYCARDVGGYAGYYGMDVWGQGTTVTVSS
VL: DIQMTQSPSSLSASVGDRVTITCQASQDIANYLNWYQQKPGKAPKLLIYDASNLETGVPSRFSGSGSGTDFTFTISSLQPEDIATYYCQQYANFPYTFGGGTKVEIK
As to B24, the binding result in assay [1] is reported as “binds”.
